B1: Pak2 kinase (protein)
chain: SDNGELEDKPPAPPVRMSSTIFSTGGKDPLSANHSLKPLPSVPEEKKPRHKIISIFSGTEKGSKKKEKERPEISPPSDFEHTIHVGFDAVTGEFTGMPEQWARLLQTSNITKLEQKKNPQAVLDVLKFYDSNTVKQKYLSFTPPEKDGFPSGTPALNAKGTEAPAVVTEEEDDDEETAPPVIAPRPDHTKSIYTRSVIDPVPAPVGDSHVDGAAKSLDKQKKKTKMTDEEIMEKLRTIVSIGDPKKKYTRYEKIGQGASGTVFTATDVALGQEVAIKQINLQKQPKKELIINEILVMKELKNPNIVNFLDSYLVGDELFVVMEYLAGGSLTDVVTETCMDEAQIAAVCRECLQALEFLHANQVIHRDIKSDNVLLGMEGSVKLTDFGFCAQITPEQSKRSTMVGTPYWMAPEVVTRKAYGPKVDIWSLGIMAIEMVEGEPPYLNENPLRALYLIATNGTPELQNPEKLSPIFRDFLNRCLEMDVEKRGSAKELLQHPFLKLAKPLSSLTPLIMAAKEAMKSNR

Experiments:
[1] = target: Pak2 kinase (UniProt Q13177); experiment: cell-based or functional assay
[2] = target: NefD123G (Nef variant)
[3] = target: NefWP (Nef variant)
[4] = target: HIV-1 Nef protein (wild-type, HIV-1 Clade B)

Molecule	phosphorylation of Pak2 at S55, quantitative phosphoproteomics of CAR T cells stimulated by NALM6 cells (Nef-WT compared to NefAxxA) (log2 fold change) [1]	phosphorylation of Pak2 at S152, quantitative phosphoproteomics of CAR T cells stimulated by NALM6 cells (Nef-WT compared to NefAxxA) (log2 fold change) [1]	Pak2 phosphorylation by gel electrophoresis / Western blot [2]	Pak2 phosphorylation by gel electrophoresis / Western blot [3]	Pak2 phosphorylation by gel electrophoresis / Western blot [4]
HIV-1 Nef protein (wild-type, HIV-1 Clade B)	2.15	1.17			
B1			Nef variants that promote CAR T cell activity in vivo (Nef WT, NefWP and NefD123G) but not NefAxxA expressing CARs also promoted Pak2 phosphorylation	Nef variants that promote CAR T cell activity in vivo (Nef WT, NefWP and NefD123G) but not NefAxxA expressing CARs also promoted Pak2 phosphorylation	Nef variants that promote CAR T cell activity in vivo (Nef WT, NefWP and NefD123G) but not NefAxxA expressing CARs also promoted Pak2 phosphorylation

— US20260007750A1
